Results: publication PMC11962071 (Nature Communications, 2025)

What was measured:
[1] = molecular target: Drosophila melanogaster calmodulin (dCaM), recombinant (Drosophila melanogaster, UniProt P62152 1-149); assay: ITC
[2] = molecular target: Mus musculus calmodulin (mCaM), recombinant (Mus musculus, UniProt P0DP27 1-149); assay: crystal structure

| fold decrease in affinity against the wild type [1] [fold] | binding result [2] | Binder |
| --- | --- | --- |
| 236 |  | MDENAIRAAIFEQKWYRRHQARREM (domain or fragment) [RDGC IQ (aa 1-25) I12E] |
|  | binds | AAALIQRWYRRYMARLEM [mPPEF2 IQ (aa 22-39)] |
